Substitutions are numbered along the chain they refer to. Each block holds one binder with its values, some of them ahead of it.
Key:
Human Siglec-7 [1] = biological target: T1, Human Siglec-7 (human, UniProt Q9Y286 19-467); test: flow cytometry, CHO transfectants
T1 construct: Expressed on transfected CHO cells; also called huSiglec-7; CD328

Human Siglec-9 mutant M2 = biological target: T2, Human Siglec-9 mutant M2 (human, UniProt Q9Y336 18-463); test: flow cytometry, HEK293T transfectants
T2 construct: Expressed on HEK293T cells; also called Mutant 2

Human Siglec-9 mutant M6 = biological target: T3, Human Siglec-9 mutant M6 (human, UniProt Q9Y336 18-463); test: flow cytometry, HEK293T transfectants
T3 construct: Expressed on HEK293T cells; also called Mutant 6
T3 sequence (Q9Y336 other isoform, or with tags, fused parts or gaps mutant): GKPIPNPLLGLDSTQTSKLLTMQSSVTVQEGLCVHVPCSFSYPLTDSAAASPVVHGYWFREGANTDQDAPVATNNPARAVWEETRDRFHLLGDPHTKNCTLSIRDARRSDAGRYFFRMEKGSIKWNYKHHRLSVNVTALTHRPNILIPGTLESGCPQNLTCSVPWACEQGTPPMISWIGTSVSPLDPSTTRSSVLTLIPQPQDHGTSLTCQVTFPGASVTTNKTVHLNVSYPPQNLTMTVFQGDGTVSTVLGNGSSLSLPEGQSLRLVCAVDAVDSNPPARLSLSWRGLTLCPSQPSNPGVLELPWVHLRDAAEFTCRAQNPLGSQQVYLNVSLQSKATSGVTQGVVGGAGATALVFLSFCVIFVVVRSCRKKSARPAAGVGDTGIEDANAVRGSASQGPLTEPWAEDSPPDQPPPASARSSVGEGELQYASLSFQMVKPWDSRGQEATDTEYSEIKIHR

Human Siglec-9 mutant M9 = biological target: T4, Human Siglec-9 mutant M9 (human, UniProt Q9Y336 18-463); test: flow cytometry, HEK293T transfectants
T4 construct: Expressed on HEK293T cells; also called Mutant 9

[2] = biological target: T5, Human Siglec-9 mutant M10 (human, UniProt Q9Y336 18-463); test: flow cytometry, HEK293T transfectants
T5 construct: Expressed on HEK293T cells; also called Mutant 10
T5 sequence (Q9Y336 other isoform, or with tags, fused parts or gaps mutant): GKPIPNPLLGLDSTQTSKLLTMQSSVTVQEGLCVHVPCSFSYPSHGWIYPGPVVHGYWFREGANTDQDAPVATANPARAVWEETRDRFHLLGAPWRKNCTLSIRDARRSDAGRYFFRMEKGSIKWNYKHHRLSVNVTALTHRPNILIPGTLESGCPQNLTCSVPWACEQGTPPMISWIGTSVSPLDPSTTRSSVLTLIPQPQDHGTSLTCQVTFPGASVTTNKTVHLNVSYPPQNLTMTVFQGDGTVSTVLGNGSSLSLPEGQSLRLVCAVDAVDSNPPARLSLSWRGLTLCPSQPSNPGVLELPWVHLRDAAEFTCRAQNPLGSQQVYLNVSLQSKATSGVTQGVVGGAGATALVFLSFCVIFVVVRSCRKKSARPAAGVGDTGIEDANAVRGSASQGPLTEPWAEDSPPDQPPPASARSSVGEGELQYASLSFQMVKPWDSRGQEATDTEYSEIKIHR

[3] = biological target: T6, Human Siglec-9 mutant M11 (human, UniProt Q9Y336 18-463); test: flow cytometry, HEK293T transfectants
T6 construct: Expressed on HEK293T cells; also called Mutant 11
T6 sequence (Q9Y336 other isoform, or with tags, fused parts or gaps mutant): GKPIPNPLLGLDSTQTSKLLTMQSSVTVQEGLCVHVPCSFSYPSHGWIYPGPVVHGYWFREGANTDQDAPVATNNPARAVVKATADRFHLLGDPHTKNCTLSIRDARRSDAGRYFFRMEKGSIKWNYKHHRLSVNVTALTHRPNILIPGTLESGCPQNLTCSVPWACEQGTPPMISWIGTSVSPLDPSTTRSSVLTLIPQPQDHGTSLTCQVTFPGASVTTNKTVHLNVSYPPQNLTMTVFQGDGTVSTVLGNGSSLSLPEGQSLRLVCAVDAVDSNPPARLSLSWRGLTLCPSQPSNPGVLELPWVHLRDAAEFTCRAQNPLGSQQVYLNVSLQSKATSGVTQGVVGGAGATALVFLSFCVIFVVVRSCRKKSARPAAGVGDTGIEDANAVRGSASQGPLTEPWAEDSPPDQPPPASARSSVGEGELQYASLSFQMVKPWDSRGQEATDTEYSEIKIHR

Human Siglec-9 [4] = biological target: T7, Human Siglec-9 (human, UniProt Q9Y336 18-463); test: flow cytometry titration on moDC vs neuraminidase-treated moDC
T7 construct: On transfected CHO cells; also on YTS and KHYG-1 transfectants, primary NK cells and moDC; also called huSiglec-9; CD329
Experimental: (§1) moDC were desialylated for 2 hours with 25 mU neuraminidase (Roche Diagnostics).
(§2) Binding on moDCs and neuraminidase treated moDCs was tested in a titration experiment by flow cytometry. Cells were incubated 1h in Staining Buffer (SB) with primary antibodies at 10 ug/ml and a series of dilution of 1:10. They were washed two times with SB, then incubated 30 min with a Goat F(ab′)² Anti-Human IgG (Fc) PE (Jackson ImmunoResearch), and washed twice with SB.

[5] = biological target: T8, Human Siglec-9 N-terminal V-set Ig-like domain (human); test: flow cytometry, HEK293T cells expressing single Siglec-9 domains
T8 construct: expressed on HEK293T cells

Human Siglec-9 [6] = biological target: T7, Human Siglec-9; test: flow cytometry on fresh purified human NK cells, mean of 4 donors
Experimental: Binding of antibodies on fresh purified human NK cells was tested by titration experiment by flow cytometry. Cells were incubated 1h in Staining Buffer (SB) with primary antibodies at 10 ug/ml and a series of dilution of 1:10. They were washed three times with SB, then incubated 30 min with a Goat F(ab′)² Anti-Human IgG (Fc) PE (Jackson ImmunoResearch). Stainings were acquired on a BD FACS Canto II and analyzed using the FlowJo software. EC₅₀ values are shown in the table below in μg/ml (calculated using a 4-parameter logistic fit).
Target sequence in this assay (Q9Y336 18-463): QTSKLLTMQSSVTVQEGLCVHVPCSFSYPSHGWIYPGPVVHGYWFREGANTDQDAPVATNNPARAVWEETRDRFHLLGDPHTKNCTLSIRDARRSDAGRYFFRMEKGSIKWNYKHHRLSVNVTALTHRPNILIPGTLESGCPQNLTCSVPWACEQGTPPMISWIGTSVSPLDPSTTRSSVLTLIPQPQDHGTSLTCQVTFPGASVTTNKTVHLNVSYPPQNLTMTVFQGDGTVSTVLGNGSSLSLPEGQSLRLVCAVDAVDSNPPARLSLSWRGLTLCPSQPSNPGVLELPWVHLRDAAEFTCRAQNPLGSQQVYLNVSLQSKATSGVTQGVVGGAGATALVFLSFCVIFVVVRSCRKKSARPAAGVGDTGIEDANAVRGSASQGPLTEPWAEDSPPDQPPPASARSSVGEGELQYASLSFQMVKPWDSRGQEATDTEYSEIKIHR

Human Siglec-9 [7] = biological target: T7, Human Siglec-9; test: flow cytometry titration on neuraminidase-treated moDCs, goat F(ab')2 anti-human IgG (Fc) PE; table under the right panel
Experimental: as §1, §2

Human Siglec-9 [8] = biological target: T7, Human Siglec-9; test: flow cytometry titration on untreated monocyte-derived dendritic cells (moDCs), goat F(ab')2 anti-human IgG (Fc) PE; table under the left panel
Experimental: as §2

Human Siglec-7 [9] = biological target: T1, Human Siglec-7; test: flow cytometry, CHO transfectants; remark: listed apart in the source
Experimental: (§3) Binding of antibodies on human Siglec-7, human Siglec-9 and Cynomolgus Siglec-9 was tested by titration experiment by flow cytometry on CHO cells transfected with human Siglec-7 and human Siglec-9 and Cynomolgus Siglec-9. Cells were incubated 1h in Staining Buffer (SB) with primary antibodies at 20 ug/ml and a series of dilution of 1:5. They were washed three times with SB, then incubated 30 min with a goat F(ab′)² Anti-human IgG (Fc) PE (Beckman Coulter #1M05510), and washed twice with SB.

Human Siglec-9 [10] = biological target: T7, Human Siglec-9; test: flow cytometry, CHO transfectants
Experimental: as §3
Target sequence in this assay (Q9Y336 18-463): as above

Cynomolgus Siglec = biological target: T9, Cynomolgus Siglec (cynomolgus); test: flow cytometry, CHO transfectants
T9 construct: Expressed on transfected CHO cells; also called Siglec-Cyno; cynoSiglec
T9 sequence (chain, as listed by the source limits assumed): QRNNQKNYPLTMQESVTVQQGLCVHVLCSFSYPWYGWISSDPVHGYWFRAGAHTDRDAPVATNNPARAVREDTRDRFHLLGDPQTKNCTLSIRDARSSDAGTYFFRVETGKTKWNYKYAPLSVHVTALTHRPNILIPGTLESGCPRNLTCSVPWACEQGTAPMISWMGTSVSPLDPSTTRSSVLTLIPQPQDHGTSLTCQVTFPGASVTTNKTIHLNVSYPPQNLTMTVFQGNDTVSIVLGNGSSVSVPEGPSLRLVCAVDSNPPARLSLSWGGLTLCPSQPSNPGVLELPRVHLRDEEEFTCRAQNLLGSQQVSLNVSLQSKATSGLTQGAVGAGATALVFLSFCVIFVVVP
Experimental: as §3

[11] = biological target: T10, Human Siglec-9 Ig-like C2-type domain 1 (human); test: flow cytometry, HEK293T cells expressing single Siglec-9 domains
T10 construct: expressed on HEK293T cells
T10 chain: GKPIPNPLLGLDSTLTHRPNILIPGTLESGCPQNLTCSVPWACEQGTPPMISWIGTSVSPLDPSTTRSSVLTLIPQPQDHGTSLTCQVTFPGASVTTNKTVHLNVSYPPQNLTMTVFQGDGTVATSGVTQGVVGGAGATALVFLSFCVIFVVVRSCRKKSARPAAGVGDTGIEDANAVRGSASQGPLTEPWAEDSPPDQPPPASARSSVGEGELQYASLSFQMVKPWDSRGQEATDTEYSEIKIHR

Siglec-7 Fc protein = biological target: T11, Siglec-7 Fc protein (human); test: ELISA, blocking: Siglec-7 Fc captured on protein A, mAb dilution series, then biotinylated polymer Sia2, streptavidin-peroxidase (top panel); partial inhibition
T11 construct: Produced in CHO cells; also called human Siglec-7 Fc
T11 sequence (chain, as listed by the source limits assumed): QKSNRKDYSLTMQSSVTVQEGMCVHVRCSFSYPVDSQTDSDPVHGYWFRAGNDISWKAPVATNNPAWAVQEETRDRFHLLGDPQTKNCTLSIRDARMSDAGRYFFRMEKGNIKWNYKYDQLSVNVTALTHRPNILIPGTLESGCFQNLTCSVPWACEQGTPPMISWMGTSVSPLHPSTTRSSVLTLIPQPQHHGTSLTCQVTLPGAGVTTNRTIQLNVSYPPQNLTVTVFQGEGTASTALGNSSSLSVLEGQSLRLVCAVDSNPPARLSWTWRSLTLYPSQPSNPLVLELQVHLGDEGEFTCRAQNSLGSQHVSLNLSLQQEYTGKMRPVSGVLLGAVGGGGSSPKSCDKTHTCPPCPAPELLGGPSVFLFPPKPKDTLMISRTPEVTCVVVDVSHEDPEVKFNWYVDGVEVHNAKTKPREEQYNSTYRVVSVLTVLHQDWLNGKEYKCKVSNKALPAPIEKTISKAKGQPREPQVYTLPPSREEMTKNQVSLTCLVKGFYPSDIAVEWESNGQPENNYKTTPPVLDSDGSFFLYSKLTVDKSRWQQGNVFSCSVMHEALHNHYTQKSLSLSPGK
Experimental: (§4) Blocking of the interaction between Siglec-7 and -9 and sialylated ligands by anti Siglec-7/9 antibodies was tested on ELISA assays. Siglec proteins were Siglec-7 human Fc and Siglec-9 Human Fc recombinant proteins, and ligands were biotinylated polymers with sialylated trisaccharides (Neu5Aca2-3Galb1-4GcNAcb-PAA-biotin Glycotech #01-077 referred to as “Sia1” and 6′-Sialyllactose-PAA-biotin Glycotech #01-039 (referred to as “Sia2”). Briefly, Protein A was coated on ELISA plates over night at 4° C. After 3 washes and saturation, Siglec-7 Fc and Siglec-9 Fc were added at 0.8 μg/well at RT for 1H30. After 3 washes, mAbs were added at 20 ug/ml and a series of dilution of 1:5. After 3 washes, biotinylated sialylated polymers were added for 3 hours at room temperature. After 3 washes, Streptavidin-Peroxidase (Beckman) was added at 1:1000. […] The absorbance was read at 450 nm.

Siglec-9 Fc protein = biological target: T12, Siglec-9 Fc protein (human); test: ELISA, blocking: Siglec-9 Fc captured on protein A, mAb dilution series, then biotinylated polymer Sia1 (Neu5Aca2-3Galb1-4GlcNAcb-PAA-biotin), streptavidin-peroxidase (top panel)
T12 construct: Produced in CHO cells; also called human Siglec-9 Fc
T12 sequence (chain, as listed by the source limits assumed): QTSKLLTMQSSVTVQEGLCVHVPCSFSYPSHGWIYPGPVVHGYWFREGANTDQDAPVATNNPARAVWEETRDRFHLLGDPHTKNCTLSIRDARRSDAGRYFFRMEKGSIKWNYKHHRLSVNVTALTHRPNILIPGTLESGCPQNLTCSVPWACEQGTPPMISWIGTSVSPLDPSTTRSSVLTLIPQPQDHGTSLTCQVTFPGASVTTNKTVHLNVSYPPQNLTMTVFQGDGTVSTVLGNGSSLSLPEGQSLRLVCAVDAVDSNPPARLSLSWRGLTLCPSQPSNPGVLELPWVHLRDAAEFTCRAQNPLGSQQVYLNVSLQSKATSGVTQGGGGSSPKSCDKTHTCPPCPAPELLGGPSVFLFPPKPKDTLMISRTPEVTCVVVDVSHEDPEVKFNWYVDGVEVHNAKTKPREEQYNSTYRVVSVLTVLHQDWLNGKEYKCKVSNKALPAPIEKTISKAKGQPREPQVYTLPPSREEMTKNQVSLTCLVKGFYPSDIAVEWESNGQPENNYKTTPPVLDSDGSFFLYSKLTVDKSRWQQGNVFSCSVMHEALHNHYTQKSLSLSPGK
Experimental: as §4

T1 sequence (Q9Y286 19-467): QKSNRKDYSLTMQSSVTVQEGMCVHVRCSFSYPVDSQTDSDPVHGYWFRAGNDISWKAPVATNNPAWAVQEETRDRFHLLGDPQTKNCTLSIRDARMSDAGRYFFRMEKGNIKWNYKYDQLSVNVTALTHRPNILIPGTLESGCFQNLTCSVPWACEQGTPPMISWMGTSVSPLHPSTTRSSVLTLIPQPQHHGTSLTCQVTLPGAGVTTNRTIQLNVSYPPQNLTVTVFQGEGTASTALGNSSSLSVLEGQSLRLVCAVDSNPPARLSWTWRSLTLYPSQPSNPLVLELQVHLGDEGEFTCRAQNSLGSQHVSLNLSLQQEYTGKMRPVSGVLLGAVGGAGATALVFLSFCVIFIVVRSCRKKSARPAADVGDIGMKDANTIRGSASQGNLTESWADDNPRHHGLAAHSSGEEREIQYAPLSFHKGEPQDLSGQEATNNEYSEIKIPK

binding result (Human Siglec-7 [1]): no binding | binding result (Human Siglec-9 mutant M2): binds | binding result (Human Siglec-9 mutant M6): binds | binding result (Human Siglec-9 mutant M9): binds | binding result [2]: binds | binding result [3]: binds | fold change of EC50 after neuraminidase treatment of moDC (Human Siglec-9 [4]): 10 fold | binding result [5]: binds | EC50 (Human Siglec-9 [6]): 0.08 µg/mL | EC50 (Human Siglec-9 [7]): 0.0282 µg/mL | EC50 (Human Siglec-9 [8]): 0.232 µg/mL
B2: mAbA (antibody, human IgG1, V domains shown)
VH: QVQLQQPGAELVKPGSPVKLSCKASYFTFTSYWMHWVRQRPGQGLEWIGEINPSNGHTNYNEKFESKATLTVDRSSSTAYMQLSSLTSEDSAVFYCANGVESYDFDDALDYWGQGTSVTVSS
VL: DIQMTQTTSSLSASLGDRVTISCRASQDINNYLNWYQQKPDGTIKLLIYYTSRLHSGVPSRFSGSGSGTDYSLTINNLEQEDIATYFCQQGNTLPFTFGGGTKLEIK

EC50 (Human Siglec-7 [9]): 0.17 µg/mL | EC50 (Human Siglec-9 [10]): 0.28 µg/mL | EC50 (Cynomolgus Siglec): 0.17 µg/mL | binding result [11]: binds | IC50 (read off the curve) (Siglec-7 Fc protein): ~2 µg/mL | binding result (Siglec-9 Fc protein): binds
B3: mAb4 (antibody, human IgG1, V domains shown)
VH: DVQLVESGGDLVKPGGSLKLSCAASGFAFSSYDMSWVRQSPEKRLEWIAHIGSGGGNIYYPDTVKGRFTISRDNAKNTLYLQMRSLKSEDTAMYYCARLIFTTGFYGMDYWGQGTSVTVSS
VL: B2 VL with N30S, N31S, N76S, E79D, E81D, T93A, F96W

EC50 (Human Siglec-7 [9]): 0.33 µg/mL | EC50 (Human Siglec-9 [10]): 0.31 µg/mL | EC50 (Cynomolgus Siglec): 0.17 µg/mL | binding result [11]: binds | binding result (Siglec-9 Fc protein): binds
B6: mAb6 (antibody, human IgG1, V domains shown)
VH: EIQLQQSGPELEKPGASVKISCKASGYSFSDYNMNWVKQSNGKSLEWIGNIDPYYGATSYNQRFKGKATLTVDKSSSTAYMQLKSLTSEDSAVYYCARGDSLFAYWGQGTLVTVSA
VL: DIVMTQSQEFMSTSLGDRVSVTCKASQNVGTNVAWYQQKPGQSPKALLYSASSRYSGVPDRFTGSGSGTDFTLTINNMQSEDLAEYFCQQYITYPYTFGGGTKLEIK

Further lines, the binder ahead of its results:

B1: mAbC (antibody, human IgG1, V domains shown)
VH: QIQLVQSGPELKKPGETVKISCKASGYTFTNYEMNWVKEAPGKGLKWMGWINTYTGESTYADDFKGRFAFSLETSASTVYLQINNLKDEDVATYFCVRDDYGRSYGFAYWGQGTLVTVSA
VL: NIVLTQSPASLTVSLGQRANISCRASESVDSYGNSFMHWYQQKPGQPPKLLIYLASKLESGVPARFSGSGSRTDFTLTIDPVETDDAATYYCHQNNEDPPWTFGGGTKLEIK
binding result (Human Siglec-7 [1]): no binding | binding result (Human Siglec-9 mutant M2): binds | binding result (Human Siglec-9 mutant M6): binds | binding result (Human Siglec-9 mutant M9): binds | binding result [2]: binds | binding result [3]: binds | fold change of EC50 after neuraminidase treatment of moDC (Human Siglec-9 [4]): 10 fold | binding result [5]: binds | EC50 (Human Siglec-9 [6]): 0.09 µg/mL | EC50 (Human Siglec-9 [7]): 0.0274 µg/mL | EC50 (Human Siglec-9 [8]): 0.196 µg/mL

B4: mAbD (antibody, human IgG1, V domains shown)
VH: QIQLVQSGPELKKPGETVKISCKASGYTFTDYSMHWVKQAPGKGLKWMGWIITETGEPTYADDFRGRFAFSLETSANTAYLQINNLKNEDTATYFCARDFDGYWGQGTTLTVSS
VL: DILMTQSPASLSASVGETVTITCRASENIYSYLAWYQQKRGKSPQFLVYNAKTLTEGVPSRFRGSGSGTQFSLKINSLQPEDFGTYYCQHHYGFPWTFGGGTKLEIK
binding result (Human Siglec-7 [1]): no binding | binding result (Human Siglec-9 mutant M2): binds | binding result (Human Siglec-9 mutant M9): binds | binding result [2]: binds | binding result [3]: binds | fold change of EC50 after neuraminidase treatment of moDC (Human Siglec-9 [4]): 10 fold | binding result [5]: binds | EC50 (Human Siglec-9 [7]): 0.0925 µg/mL | EC50 (Human Siglec-9 [8]): 2.47 µg/mL

B5: mAb5 (antibody, human IgG1, V domains shown)
VH: B6 VH with Q108H
VL: B6 VL with N76S, M78V
EC50 (Human Siglec-7 [9]): 0.22 µg/mL | EC50 (Human Siglec-9 [10]): 0.26 µg/mL | EC50 (Cynomolgus Siglec): 0.14 µg/mL | binding result [11]: binds | IC50 (read off the curve) (Siglec-7 Fc protein): ~1 µg/mL | binding result (Siglec-9 Fc protein): binds
